From the supplement of paper PMC10567573 come the findings set out here.

B1: TNXB (parent)
chain: LLQRELMVPGTRHSAVLRDLRSGT
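Note: lentivirally expressed fusions sorted by FACS into six bins by GFP to DsRed ratio, PSI derived from sequencing read proportions per bin multiplied by bin number.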

The series covers variants of B1. The series can be described thus: protein stability index of a GFP-peptide fusion (GPS, HEK-293T) (PSI 1-6); higher = more stable. The settings on record: c terminus: a fixed tail appended.
As to LLQRELMVMGTRHSAVLRDLRSGT [P9M], the protein stability index came to 2.1.

Take LLQRELMVHGTRHSAVLRDLRSGT [P9H]: the protein stability index was 2.23.

Consider LLQRELMVPGTRHTAVLRDLRSGT [S14T], for which the protein stability index is 2.45. LLQRELMVPGTRHQAVLRDLRSGT [S14Q]: the protein stability index worked out at 2.85. Regarding LLQRELMVPGTRHMAVLRDLRSGT [S14M], the protein stability index was 2.23. In the case of LLQRELMVPGTRHHAVLRDLRSGT [S14H], the protein stability index worked out at 2.26.

As for LLQRELMVPGTRHRAVLRDLRSGT [S14R], the protein stability index is 2.45. Consider LLQRELMVPGTRHVAVLRDLRSGT [S14V], for which the protein stability index was 2.22. As to LLQRELMVPGTRHPAVLRDLRSGT [S14P], the protein stability index was 2.32. As to LLQRELMVPGTRHCAVLRDLRSGT [S14C], the protein stability index came to 2.03. To LLQRELMVPGTRHYAVLRDLRSGT [S14Y] belongs 2.71; to LLQRELMVPGTRHLAVLRDLRSGT [S14L], 1.61.

LLQRELMVPGTRHDAVLRDLRSGT [S14D]: the protein stability index was determined as 2.66. As for LLQRELMVPGTRHEAVLRDLRSGT [S14E], the protein stability index was determined as 2.54. Consider LLQRELMVPGTRHKAVLRDLRSGT [S14K], for which the protein stability index amounted to 2.67. Turning to LLQRELMVPGTRHIAVLRDLRSGT [S14I], the protein stability index was 1.75. For LLQRELMVPGTRHGAVLRDLRSGT [S14G], the protein stability index worked out at 2.63. LLQRELMVPGTRHNAVLRDLRSGT [S14N]: the protein stability index is 2.88. For LLQRELMVPGTRHWAVLRDLRSGT [S14W], the protein stability index was 2.11. Consider LLQRELMVPGTRHAAVLRDLRSGT [S14A], for which the protein stability index stood at 2.2. To LLQRELMVPGTRHFAVLRDLRSGT [S14F] belongs 2.32; to LLQRELMVPGTRHSRVLRDLRSGT [A15R], 3.4; to LLQRELMVPGTRHSTVLRDLRSGT [A15T], 2.18. The value for LLQRELMVPGTRHSEVLRDLRSGT [A15E] was 2.92; that for LLQRELMVPGTRHSNVLRDLRSGT [A15N] was 3.19; that for LLQRELMVPGTRHSSVLRDLRSGT [A15S] was 2.27. Consider LLQRELMVPGTRHSPVLRDLRSGT [A15P], for which the protein stability index stood at 2.35. Consider LLQRELMVPGTRHSMVLRDLRSGT [A15M], for which the protein stability index came out at 2.43. For the variant LLQRELMVPGTRHSHVLRDLRSGT [A15H], the protein stability index turned out to be 2.41. Regarding LLQRELMVPGTRHSDVLRDLRSGT [A15D], the protein stability index was determined as 2.29. The value for LLQRELMVPGTRHSVVLRDLRSGT [A15V] was 1.95. As to LLQRELMVPGTRHSFVLRDLRSGT [A15F], the protein stability index came to 1.98.

With LLQRELMVPGTRHSWVLRDLRSGT [A15W], the protein stability index turned out to be 3.49. In the case of LLQRELMVPGTRHSLVLRDLRSGT [A15L], the protein stability index was 2.14.

On to LLQRELMVPGTRHSIVLRDLRSGT [A15I], for which the protein stability index was found to be 2.26. With LLQRELMVPGTRHSKVLRDLRSGT [A15K], the protein stability index was 2.82. The value for LLQRELMVPGTRHSQVLRDLRSGT [A15Q] was 1.97. As to LLQRELMVPGTRHSYVLRDLRSGT [A15Y], the protein stability index stood at 1.62. In the case of LLQRELMVPGTRHSCVLRDLRSGT [A15C], the protein stability index is 1.72. To LLQRELMVPGTRHSGVLRDLRSGT [A15G] belongs 2.34; to LLQRELMVPPTRHSAVLRDLRSGT [G10P], 2.54; to LLQRELMVPITRHSAVLRDLRSGT [G10I], 1.64.

With LLQRELMVPVTRHSAVLRDLRSGT [G10V], the protein stability index stood at 2.02. For the variant LLQRELMVPSTRHSAVLRDLRSGT [G10S], the protein stability index was determined as 3.01. For LLQRELMVPLTRHSAVLRDLRSGT [G10L], the protein stability index was found to be 1.35. As for LLQRELMVPQTRHSAVLRDLRSGT [G10Q], the protein stability index turned out to be 2.41. Consider LLQRELMVPNTRHSAVLRDLRSGT [G10N], for which the protein stability index is 2.75.

For the variant LLQRELMVPDTRHSAVLRDLRSGT [G10D], the protein stability index came out at 2.85. In the case of LLQRELMVPATRHSAVLRDLRSGT [G10A], the protein stability index came out at 2.39.

Take LLQRELMVPRTRHSAVLRDLRSGT [G10R]: the protein stability index was determined as 2.9. As for LLQRELMVPWTRHSAVLRDLRSGT [G10W], the protein stability index stood at 1.72. On to LLQRELMVPETRHSAVLRDLRSGT [G10E], for which the protein stability index was 3.01.

As to LLQRELMVPMTRHSAVLRDLRSGT [G10M], the protein stability index was determined as 1.72. Take LLQRELMVPHTRHSAVLRDLRSGT [G10H]: the protein stability index is 2.19. For the variant LLQRELMVPTTRHSAVLRDLRSGT [G10T], the protein stability index was found to be 2.58. Turning to LLQRELMVPCTRHSAVLRDLRSGT [G10C], the protein stability index was determined as 1.43. With LLQRELMVPFTRHSAVLRDLRSGT [G10F], the protein stability index was determined as 2.33. With LLQRELMVPKTRHSAVLRDLRSGT [G10K], the protein stability index is 2.

On to LLQRELMVPYTRHSAVLRDLRSGT [G10Y], for which the protein stability index turned out to be 1.09. Turning to LLQRELMVPGARHSAVLRDLRSGT [T11A], the protein stability index came to 2.2. To LLQRELMVPGDRHSAVLRDLRSGT [T11D] belongs 2.81; to LLQRELMVPGNRHSAVLRDLRSGT [T11N], 2.43.

For the variant LLQRELMVPGLRHSAVLRDLRSGT [T11L], the protein stability index turned out to be 2.32. Consider LLQRELMVPGMRHSAVLRDLRSGT [T11M], for which the protein stability index amounted to 2.2. As to LLQRELMVPGFRHSAVLRDLRSGT [T11F], the protein stability index was found to be 2.3. As for LLQRELMVPGYRHSAVLRDLRSGT [T11Y], the protein stability index came out at 1.94. For the variant LLQRELMVPGCRHSAVLRDLRSGT [T11C], the protein stability index is 1.56. With LLQRELMVPGVRHSAVLRDLRSGT [T11V], the protein stability index was found to be 2.24. As to LLQRELMVPGRRHSAVLRDLRSGT [T11R], the protein stability index turned out to be 2.13. As to LLQRELMVPGQRHSAVLRDLRSGT [T11Q], the protein stability index turned out to be 2.88. As to LLQRELMVPGERHSAVLRDLRSGT [T11E], the protein stability index is 2.65. In the case of LLQRELMVPGHRHSAVLRDLRSGT [T11H], the protein stability index was determined as 2.68. LLQRELMVPGGRHSAVLRDLRSGT [T11G]: the protein stability index was found to be 3.21.

Regarding LLQRELMVPGIRHSAVLRDLRSGT [T11I], the protein stability index is 2.38. With LLQRELMVPGKRHSAVLRDLRSGT [T11K], the protein stability index stood at 2.32. As to LLQRELMVPGWRHSAVLRDLRSGT [T11W], the protein stability index is 1.69. Regarding LLQRELMVPGPRHSAVLRDLRSGT [T11P], the protein stability index amounted to 2.51. For the variant LLQRELMVPGSRHSAVLRDLRSGT [T11S], the protein stability index was 2.5. With LLQRELMRPGTRHSAVLRDLRSGT [V8R], the protein stability index was 2.12. As to LLQRELMKPGTRHSAVLRDLRSGT [V8K], the protein stability index stood at 2.46. With LLQRELMWPGTRHSAVLRDLRSGT [V8W], the protein stability index was found to be 2.34. LLQRELMPPGTRHSAVLRDLRSGT [V8P]: the protein stability index was 2.21. Consider LLQRELMYPGTRHSAVLRDLRSGT [V8Y], for which the protein stability index came to 2.32. With LLQRELMIPGTRHSAVLRDLRSGT [V8I], the protein stability index was 1.99. For the variant LLQRELMGPGTRHSAVLRDLRSGT [V8G], the protein stability index turned out to be 2.27. To LLQRELMQPGTRHSAVLRDLRSGT [V8Q] belongs 2.22; to LLQRELMNPGTRHSAVLRDLRSGT [V8N], 2.59; to LLQRELMEPGTRHSAVLRDLRSGT [V8E], 2.62. As to LLQRELMMPGTRHSAVLRDLRSGT [V8M], the protein stability index worked out at 2.15. As for LLQRELMLPGTRHSAVLRDLRSGT [V8L], the protein stability index came out at 2.35. As for LLQRELMHPGTRHSAVLRDLRSGT [V8H], the protein stability index was 2.36. For LLQRELMSPGTRHSAVLRDLRSGT [V8S], the protein stability index came to 3.11. LLQRELMFPGTRHSAVLRDLRSGT [V8F]: the protein stability index turned out to be 2.28. As for LLQRELMTPGTRHSAVLRDLRSGT [V8T], the protein stability index is 2.36.
